Results as given in patent US20030166537A1, “Use of GDNF for treating corneal defects” (Biopharm Gesellschaft Zur Biotechnologischen Entwicklung …, priority 1999, published 2003).

How the values were obtained:
Format in all cases: cell-based
[1] = test system: corneal epithelial cells; experiment: modified Boyden chamber migration assay; details: 250 ng/ml in lower well
Description: In order to further evaluate the chemotactic effect of GDNF on corneal epithelial cells, a modified Boyden chamber assay was used. 4×10^5 cells from the either primary cultured cells or the corneal epithelial cell line were seeded onto tissue culture inserts containing a polyethylene terephthalate (PET) filter having a pore size of 8 μm (Falcon). Within 4 hours after seeding most cells had attached to the filter and formed a semiconfluent monolayer. The medium was then changed to SHEM without additives in the upper well and SHEM with GDNF (250 ng/ml) in the lower well. After 24 h of culture cells were removed from the surface of the insert by gentle scrubbing with a rubber policeman. Cells on the bottom of the insert (which had migrated through the filter) were fixed with −20° C. methanol and stained with crystal violet. The entire surface of the filters was screened for cells under the microscope.

[2] = test system: primary rabbit corneal epithelial cells; experiment: single cell clonal growth assay (colony formation, clonal proliferation); details: D6
Excerpt: In order to evaluate the effect of GDNF on corneal proliferation, recombinant human GDNF was used (R&D, Minneapolis, Minn., USA). For the evaluation of the effect on corneal epithelial proliferaton a single cell clonal growth model was utilized which allows to determine the effect of the given growth factor on both colony formation as well as clonal expansion (Kruse et al., 1991). New Zealand white rabbits were housed and treated according to the ARVO Resolution of Animals in Research and under observation of German Federal Laws and the laws of the State of Baden-Württemberg. Prior to sacrifice with an intravenous overdose of pentobarbital, they received an intramuscular injection of xylazine hydrochloride and ketamine hydrochloride. The details of the clonal growth assay are described in Kruse et al. (1991). 5000 viable cells were seeded in each 16 mm dish in serum-free medium MCDB 151 with a supplement (S) of insulin (5 μg/ml), transferrin (5 μg/ml), selenium (5 ng/ml) and hydrocortisone (5 μg/ml) (all from Sigma, Deisenhofen, Germany). […] This quantification was facilitated by the use of dishes which contained a grit on the bottom which is roughly 2 mm wide (from Sarstedt, Newton, N.C., USA). For data collection the entire surface area of four randomly selected dishes for each condition was screened. Furthermore, the number of cells per colony was determined in 75 randomly selected colonies for each condition. Furthermore, the total number of cells/dish was calculated in order to carry out an evaluation for artemin. In order to stimulate the cellular proliferation, GDNF (50 or 200 ng/ml) or artemin (250 ng/ml) was added to the medium. In order to estimate the rate of proliferation after 12 days (a time when neighbouring colonies started to grow into each other and, therefore, prevented numerical quantification) dishes were fixed in −20° C. methanol and stained with methylene blue.
All experiments examining the effect of GDNF on corneal proliferation were performed in triplicate with cells from different donors. The influence of growth factor on colony formation, colony size and cell number was studied using one-way analysis of variance. […] Student's t-test was employed to determine which differences were significant after analysis of variance.

[3] = test system: ERK1, ERK2, JNK1 and JNK2; experiment: western blot of phosphorylated MAP kinases in cultured human corneal epithelium; details: human epithelial cells
Description: In order to evaluate the effect of GDNF and other neurotrophic factors on the activation of signal transduction pathways in cultured corneal epithelial and stromal keratocytes, western blots were performed for detecting an accumulation of phosphorylated MAP kinases ERK and JNK in the presence of GDNF, NGF and BDNF. Human stromal keratocytes were cultured in RPMI 1640 medium containing L-glutamine (glutaMAX) or DMEM with 10% FBS for one day and starved in serum-free medium for another day. Cultures were then washed with PBS and incubated in serum-free DMEM without additives or with recombinant human GDNF (200 ng/ml), recombinant human NGF (200 ng/ml) and recombinant human BDNF (200 ng/ml) (all obtained from R & D Systems, Mineapolis, Minn., USA) for 30 min. Some cultures were incubated with an inhibitor of MAP kinases (PD 98059, Torcris Cookson Ballwin, Mo., USA) at 100 μM for 1 h prior to exposure to neurotrophines. After washing with PBS, culture cells were solubilized in lysis buffer containing 50 mM Tris-Cl (pH 8.0), 150 mM NaCl, 0.02% sodium azide, 100 μg/ml PMSF, 1% Triton X-100 and a mixture of several protein inhibitors (Complete®, Boehringer Mannheim) (one tablet/50 ml buffer). 50 μg total protein per lane was fractionated by a 10% STS-MOPS NUPAGE Bis-tris gel (NOVEX, San Diego, Calif., USA) and blotted onto nitrocellulose membrane. Membranes were stained with diluted polyclonal antibodies against ERK1, ERK2, JNK1 and JNK2 (Santa Cruz Biotechnology, Santa Cruz, Calif., USA). Also a polyclonal antibody was used which recognizes the […] form of either ERK1 and ERK2 which was raised against the catalytic core of the phosphorylated threonine residue 183 and tyrosine residue 185 of mammalian ERK2. Similarily, a polyclonal antibody recognizing the phosphorylated form of JNK1 and JNK2 was used (both from Promega). In the last step the membranes were visualized with the ECL western blot analysis system (Amersham).

[4] = molecular target: T1, Ret (Homo sapiens, UniProt P07949); experiment: immuno-precipitation and western blot of tyrosine-phosphorylated Ret in cultured corneal epithelial cells; details: GDNF 200 ng/ml vs serum-free control cultures
T1 construct: The level of phosphorylated Ret (approximately 150 kD) in cultured corneal epithelial cells (control) was low prior to addition of GDNF; endogenous in cells; host or cells: SV40-transformed human corneal epithelial cell line (Araki-Sasaki et al., 1995)
T1 sequence (P07949 29-1114): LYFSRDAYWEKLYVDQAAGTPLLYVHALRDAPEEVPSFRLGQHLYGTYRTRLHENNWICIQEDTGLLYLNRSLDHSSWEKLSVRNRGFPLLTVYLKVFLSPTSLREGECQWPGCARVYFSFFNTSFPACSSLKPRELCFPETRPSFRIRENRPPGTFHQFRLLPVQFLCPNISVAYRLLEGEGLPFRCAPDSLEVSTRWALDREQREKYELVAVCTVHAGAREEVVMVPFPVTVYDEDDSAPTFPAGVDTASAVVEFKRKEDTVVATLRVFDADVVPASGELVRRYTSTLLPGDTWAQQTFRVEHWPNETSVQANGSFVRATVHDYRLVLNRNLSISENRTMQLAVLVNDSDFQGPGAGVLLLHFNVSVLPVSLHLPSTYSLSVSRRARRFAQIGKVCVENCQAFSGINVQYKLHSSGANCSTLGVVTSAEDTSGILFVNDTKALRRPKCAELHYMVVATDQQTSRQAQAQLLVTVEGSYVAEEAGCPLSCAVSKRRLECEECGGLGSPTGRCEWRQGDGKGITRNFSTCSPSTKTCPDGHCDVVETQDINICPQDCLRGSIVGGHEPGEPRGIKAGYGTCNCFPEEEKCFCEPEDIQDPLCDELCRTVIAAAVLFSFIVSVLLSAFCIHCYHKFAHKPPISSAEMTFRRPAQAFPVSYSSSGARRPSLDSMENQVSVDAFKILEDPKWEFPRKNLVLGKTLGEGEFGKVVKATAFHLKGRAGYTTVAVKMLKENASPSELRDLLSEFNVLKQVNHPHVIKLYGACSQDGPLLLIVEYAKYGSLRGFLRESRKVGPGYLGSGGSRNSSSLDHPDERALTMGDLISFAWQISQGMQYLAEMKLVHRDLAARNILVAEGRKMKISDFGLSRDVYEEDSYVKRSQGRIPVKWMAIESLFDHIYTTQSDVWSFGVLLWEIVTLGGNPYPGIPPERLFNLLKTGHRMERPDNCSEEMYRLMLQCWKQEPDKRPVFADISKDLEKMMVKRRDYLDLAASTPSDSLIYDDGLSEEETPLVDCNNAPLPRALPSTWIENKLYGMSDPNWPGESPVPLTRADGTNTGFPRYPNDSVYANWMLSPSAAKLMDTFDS

B1: GDNF: recombinant human GDNF having the amino acid sequence of human wild-type GDNF (GenBank L19063, L15306) (protein)
chain: SPDKQMAVLPRRERNRQAAAANPENSRGKGRRGQRGKNRGCVLTAIHLNVTDLGLGYETKEELIFRYCSGSCDAAETTYDKILKNLSRNRRLVSDKVGQACCRPIAFDDDLSFLDDNLVYHILRKHSAKRCGCI
[1]
  increase of number of migrated cells over control: more than 6 fold
[1]; 8 μm pore size, 24 h, control 19±6.8
  number of cells migrated through the filter: 117±37.6
[2]; GDNF 50 ng (p<0,05) and 200 ng (p<0.0001), serum-free MCDB
  numbers of colonies per dish: increased significantly
[2]; GDNF 50 and 200 ng/ml, p<0.01
  clonal proliferation (number of cells within each colony): significantly stimulated
[3]; 200 ng/ml factor vs serum-free control medium
  phosphorylation of ERK1 and ERK2: induced
[3]; vs control
  phosphorylation of JNK1/2: not induced
[4]
  time to induction of tyrosine phosphorylation of Ret: ≤ 5 min
